The results in this text go back to publication PMC7423155, “RCC1L (WBSCR16) isoforms coordinate mitochondrial ribosome assembly through their interaction with GTPases” (PLoS Genetics, 2020).

The test deals with T1, STREP2-FLAG-tagged RCC1L^V1 (human, UniProt Q96I51 38-464).
T1 construct: RCC1L (WBSCR16), human, isoform RCC1L^V1, the principal isoform, 464 amino acids as precursor; isoform cDNA expressed in cells and recovered from purified mitochondria; pcDNA5/FRT/TO; carboxy-terminal STREP2 followed by FLAG; also called RCC1L^V1-FLAG; WBSCR16 isoform V1; source: inducible transgenic HEK cell line (doxycycline), in lysate of purified mitochondria; not shown: STREP2, C-terminal, …
T1 sequence (Q96I51 38-464): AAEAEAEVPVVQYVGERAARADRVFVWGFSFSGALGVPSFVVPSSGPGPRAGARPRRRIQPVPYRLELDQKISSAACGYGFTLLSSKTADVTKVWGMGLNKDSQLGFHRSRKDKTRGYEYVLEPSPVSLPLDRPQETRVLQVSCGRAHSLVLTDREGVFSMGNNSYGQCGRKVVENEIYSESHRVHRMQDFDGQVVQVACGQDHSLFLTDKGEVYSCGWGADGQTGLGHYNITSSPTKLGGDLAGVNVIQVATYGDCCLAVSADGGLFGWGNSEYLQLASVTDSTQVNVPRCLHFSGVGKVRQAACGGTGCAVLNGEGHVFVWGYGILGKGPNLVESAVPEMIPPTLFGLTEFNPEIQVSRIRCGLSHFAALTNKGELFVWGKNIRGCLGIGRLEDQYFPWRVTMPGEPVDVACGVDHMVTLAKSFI
Description: co-IP; STREP2-FLAG-tagged RCC1L isoform as bait, captured on Strep-Tactin Sepharose overnight from trypsin-treated, sucrose gradient-purified HEK mitochondria lysed with 0.8% DDM; 10 washes; elution with 10 mM desthiobiotin; endogenous proteins in the elution found by immunoblot. Particulars: partners not purified. For orientation: A western blot detects proteins with antibodies after separation by electrophoresis.

B1: GTPBP10 (enzyme, human (endogenous in HEK293T), UniProt A4D1E9 1-387, looked up)
chain: MVHCSCVLFRKYGNFIDKLRLFTRGGSGGMGYPRLGGEGGKGGDVWVVAQNRMTLKQLKDRYPRKRFVAGVGANSKISALKGSKGKDCEIPVPVGISVTDENGKIIGELNKENDRILVAQGGLGGKLLTNFLPLKGQKRIIHLDLKLIADVGLVGFPNAGKSSLLSCVSHAKPAIADYAFTTLKPELGKIMYSDFKQISVADLPGLIEGAHMNKGMGHKFLKHIERTRQLLFVVDISGFQLSSHTQYRTAFETIILLTKELELYKEELQTKPALLAVNKMDLPDAQDKFHELMSQLQNPKDFLHLFEKNMIPERTVEFQHIIPISAVTGEGIEELKNCIRKSLDEQANQENDALHKKQLLNLWISDTMSSTEPPSKHAVTTSKMDII
notes: GTPBP10, mitochondrial GTPase of mtLSU assembly, human; endogenous mitochondrial protein; source: endogenous, lysate of purified HEK mitochondria
Take B1: the “fold enrichment in the pull-down over MTG1” value stood at 5 fold and the “fold enrichment in the pull-down over MTG2” value turned out to be 4 fold.
